Laboratory results from patent US20090099029.

T1: Bovine, dephosphorylated, Myelin Basic Protein (MBP), P02687
T1 chain: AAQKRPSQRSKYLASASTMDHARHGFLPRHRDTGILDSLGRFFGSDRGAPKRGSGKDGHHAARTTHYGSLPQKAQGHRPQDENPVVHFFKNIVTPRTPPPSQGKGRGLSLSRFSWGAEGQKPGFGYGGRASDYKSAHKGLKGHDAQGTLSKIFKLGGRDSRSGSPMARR

B1: FER (protein)
chain: KSGVVLLNPIPKDKKWILSHEDVILGELLGKGNFGEVYKGTLKDKTSVAVKTCKEDLPQELKIKFLQEAKILKQYDHPNIVKLIGVCTQRQPVYIIMELVSGGDFLTFLRRKKDELKLKQLVKFSLDAAAGMLYLESKNCIHRDLAARNCLVGENNVLKISDFGMSRQEDGGVYSSSGLKQIPIKWTAPEALNYGRYSSESDVWSFGILLWETFSLGVCPYPGMTNQQAREQVERGYRMSAPQHCPEDISKIMMKCWDYKPENRPKFSELQKELTIIKRKLT
B2: JAK3 (protein)
chain: ISSDYELLSDPTPGALAPRDGLWNGAQLYACQDPTIFEERHLKYISQLGKGNFGSVELCRYDPLGDNTGALVAVKQLQHSGPDQQRDFQREIQILKALHSDFIVKYRGVSYGPGRQSLRLVMEYLPSGCLRDFLQRHRARLDASRLLLYSSQICKGMEYLGSRRCVHRDLAARNILVESEAHVKIADFGLAKLLPLDKDYYVVREPGQSPIFWYAPESLSDNIFSRQSDVWSFGVVLYELFTYCDKSCSPSAEFLRMMGCERDVPALCRLLELLEEGQRLPAPPACPAEVHELMKLCWAPSPQDRPSFSALGPQLDMLWSGSRGCETHAFTAHPEGKHHSLSFS
B3: FES (protein)
chain: MGFSSELCSPQGHGVLQQMQEAELRLLEGMRKWMAQRVKSDREYAGLLHHMSLQDSGGQSRAISPDSPISQSWAEITSQTEGLSRLLRQHAEDLNSGPLSKLSLLIRERQQLRKTYSEQWQQLQQELTKTHSQDIEKLKSQYRALARDSAQAKRKYQEASKDKDRDKAKDKYVRSLWKLFAHHNRYVLGVRAAQLHHQHHHQLLLPGLLRSLQDLHEEMACILKEILQEYLEISSLVQDEVVAIHREMAAAAARIQPEAEYQGFLRQYGSAPDVPPCVTFDESLLEEGEPLEPGELQLNELTVESVQHTLTSVTDELAVATEMVFRRQEMVTQLQQELRNEEENTHPRERVQLLGKRQVLQEALQGLQVALCSQAKLQAQQELLQTKLEHLGPGEPPPVLLLQDDRHSTSSSEQEREGGRTPTLEILKSHISGIFRPKFSLPPPLQLIPEVQKPLHEQLWYHGAIPRAEVAELLVHSGDFLVRESQGKQEYVLSVLWDGLPRHFIIQSLDNLYRLEGEGFPSIPLLIDHLLSTQQPLTKKSGVVLHRAVPKDKWVLNHEDLVLGEQIGRGNFGEVFSGRLRADNTLVAVKSCRETLPPDLKAKFLQEARILKQYSHPNIVRLIGVCTQKQPIYIVMELVQGGDFLTFLRTEGARLRVKTLLQMVGDAAAGMEYLESKCCIHRDLAARNCLVTEKNVLKISDFGMSREEADGVYAASGGLRQVPVKWTAPEALNYGRYSSESDVWSFGILLWETFSLGASPYPNLSNQQTREFVEKGGRLPCPELCPDAVFRLMEQCWAYEPGQRPSFSTIYQELQSIRKRHR
B4: LYNA (protein)
chain: MGCIKSKGKDSLSDDGVDLKTQPVRNTERTIYVRDPTSNKQQRPVPESQLLPGQRFQTKDPEEQGDIVVALYPYDGIHPDDLSFKKGEKMKVLEEHGEWWKAKSLLTKKEGFIPSNYVAKLNTLETEEWFFKDITRKDAERQLLAPGNSAGAFLIRESETLKGSFSLSVRDFDPVHGDVIKHYKIRSLDNGGYYISPRITFPCISDMIKHYQKQADGLCRRLEKACISPKPQKPWDKDAWEIPRESIKLVKRLGAGQFGEVWMGYYNNSTKVAVKTLKPGTMSVQAFLEEANLMKTLQHDKLVRLYAVVTREEPIYIITEYMAKGSLLDFLKSDEGGKVLLPKLIDFSAQIAEGMAYIERKNYIHRDLRAANVLVSESLMCKIADFGLARVIEDNEYTAREGAKFPIKWTAPEAINFGCFTIKSDVWSFGILLYEIVTYGKIPYPGRTNADVMTALSQGYRMPRVENCPDELYDIMKMCWKEKAEERPTFDYLQSVLDDFYTATEGQYQQQP
B5: BTK (protein)
chain: MAAVILESIFLKRSQQKKKTSPLNFKKRLFLLTVHKLSYYEYDFERGRRGSKKGSIDVEKITCVETVVPEKNPPPERQIPRRGEESSEMEQISIIERFPYPFQVVYDEGPLYVFSPTEELRKRWIHQLKNVIRYNSDLVQKYHPCFWIDGQYLCCSQTAKNAMGCQILENRNGSLKPGSSHRKTKKPLPPTPEEDQILKKPLPPEPAAAPVSTSELKKVVALYDYMPMNANDLQLRKGDEYFILEESNLPWWRARDKNGQEGYIPSNYVTEAEDSIEMYEWYSKHMTRSQAEQLLKQEGKEGGFIVRDSSKAGKYTVSVFAKSTGDPQGVIRHYVVCSTPQSQYYLAEKHLFSTIPELINYHQHNSAGLISRLKYPVSQQNKNAPSTAGLGYGSWEIDPKDLTFLKELGTGQFGVVKYGKWRGQYDVAIKMIKEGSMSEDEFIEEAKVMMNLSHEKLVQLYGVCTKQRPIFIITEYMANGCLLNYLREMRHRFQTQQLLEMCKDVCEAMEYLESKQFLHRDLAARNCLVNDQGVVKVSDFGLSRYVLDDEYTSSVGSKFPVRWSPPEVLMYSKFSSKSDIWAFGVLMWEIYSLGKMPYERFTNSETAEHIAQGLRLYRPHLASEKVYTIMYSCWHEKADERPTFKILLSNILDVMDEES
B6: ABL2(ARG) (protein)
chain: MGQQVGRVGEAPGLQQPQPRGIRGSSAARPSGRRRDPAGRTTETGFNIFTQHDHFASCVEDGFEGDKTGGSSPEALHRPYGCDVEPQALNEAIRWSSKENLLGATESDPNLFVALYDFVASGDNTLSITKGEKLRVLGYNQNGEWSEVRSKNGQGWVPSNYITPVNSLEKHSWYHGPVSRSAAEYLLSSLINGSFLVRESESSPGQLSISLRYEGRVYHYRINTTADGKVYVTAESRFSTLAELVHHHSTVADGLVTTLHYPAPKCNKPTVYGVSPIHDKWEMERTDITMKHKLGGGQYGEVYVGVWKKYSLTVAVKTLKEDTMEVEEFLKEAAVMKEIKHPNLVQLLGVCTLEPPFYIVTEYMPYGNLLDYLRECNREEVTAVVLLYMATQISSAMEYLEKKNFIHRDLAARNCLVGENHVVKVADFGLSRLMTGDTYTAHAGAKFPIKWTAPESLAYNTFSIKSDVWAFGVLLWEIATYGMSPYPGIDLSQVYDLLEKGYRMEQPEGCPPKVYELMRACWKWSPADRPSFAETHQAFETMFHDSSISEEVAEELGRAASSSSVVPYLPRLPILPSKTRTLKKQVENKENIEGAQDATENSASSLAPGFIRGAQASSGSPALPRKQRDKSPSSLLEDAKETCFTRDRKGGFFSSFMKKRNAPTPPKRSSSFREMENQPHKKYELTGNFSSVASLQHADGFSFTPAQQEANLVPPKCYGGSFAQRNLCNDDGGGGGGSGTAGGGWSGITGFFTPRLIKKTLGLRAGKPTASDDTSKPFPRSNSTSSMSSGLPEQDRMAMTLPRNCQRSKLQLERTVSTSSQPEENVDRANDMLPKKSEESAAPSRERPKAKLLPRGATALPLRTPSGDLAITEKDPPGVGVAGVAAAPKGKEKNGGARLGMAGVPEDGEQPGWPSPAKAAPVLPTTHNHKVPVLISPTLKHTPADVQLIGTDSQGNKFKLLSEHQVTSSGDKDRPRRVKPKCAPPPPPVMRLLQHPSICSDPTEEPTALTAGQSTSETQEGGKKAALGAVPISGKAGRPVMPPPQVPLPTSSISPAKMANGTAGTKVALRKTKQAAEKISADKISKEALLECADLLSSALTEPVPNSQLVDTGHQLLDYCSGYVDCIPQTRNKFAFREAVSKLELSLQELQVSSAAAGVPGTNPVLNNLLSCVQEISDVVQR
B7: MATK(HYL) (protein)
chain: MQGHFPAERREGRPRRGTRGQQQLLVSPRFLRAWHPPPVSARMPTRRWAPGTQCITKCEHTRPKPGELAFRKGDVVTILEACENKSWYRVKHHTSGQEGLLAAGALREREALSADPKLSLMPWFHGKISGQEAVQQLQPPEDGLFLVRESARHPGDYVLCVSFGRDVIHYRVLHRDGHLTIDEAVFFCNLMDMVEHYSKDKGAICTKLVRPKRKHGTKSAEEELARAGWLLNLQHLTLGAQIGEGEFGAVLQGEYLGQKVAVKNIKCDVTAQAFLDETAVMTKMQHENLVRLLGVILHQGLYIVMEHVSKGNLVNFLRTRGRALVNTAQLLQFSLHVAEGMEYLESKKLVHRDLAARNILVSEDLVAKVSDFGLAKAERKGLDSSRLPVKWTAPEALKHGKFTSKSDVWSFGVLLWEVFSYGRAPYPKMSLKEVSEAVEKGYRMEPPEGCPGPVHVLMSSCWEAEPARRPPFRKLAEKLARELRSAGAPASVSGQDADGSTSPRSQEP
B8: BMX (protein)
chain: MDTKSILEELLLKRSQQKKKMSPNNYKERLFVLTKTNLSYYEYDKMKRGSRKGSIEIKKIRCVEKVNLEEQTPVERQYPFQIVYKDGLLYVYASNEESRSQWLKALQKEIRGNPHLLVKYHSGFFVDGKFLCCQQSCKAAPGCTLWEAYANLHTAVNEEKHRVPTFPDRVLKIPRAVPVLKMDAPSSSTTLAQYDNESKKNYGSQPPSSSTSLAQYDSNSKKIYGSQPNFNMQYIPREDFPDWWQVRKLKSSSSSEDVASSNQKERNVNHTTSKISWEFPESSSSEEEENLDDYDWFAGNISRSQSEQLLRQKGKEGAFMVRNSSQVGMYTVSLFSKAVNDKKGTVKHYHVHTNAENKLYLAENYCFDSIPKLIHYHQHNSAGMITRLRHPVSTKANKVPDSVSLGNGIWELKREEITLLKELGSGQFGVVQLGKWKGQYDVAVKMIKEGSMSEDEFFQEAQTMMKLSHPKLVKFYGVCSKEYPIYIVTEYISNGCLLNYLRSHGKGLEPSQLLEMCYDVCEGMAFLESHQFIHRDLAARNCLVDRDLCVKVSDFGMTRYVLDDQYVSSVGTKFPVKWSAPEVFHYFKYSSKSDVWAFGILMWEVFSLGKQPYDLYDNSQVVLKVSQGHRLYRPHLASDTIYQIMYSCWHELPEKRPTFQQLLSSIEPLREKDKH
B9: CSK (protein)
chain: MSAIQAAWPSGTECIAKYNFHGTAEQDLPFCKGDVLTIVAVTKDPNWYKAKNKVGREGIIPANYVQKREGVKAGTKLSLMPWFHGKITREQAERLLYPPETGLFLVRESTNYPGDYTLCVSCDGKVEHYRIMYHASKLSIDEEVYFENLMQLVEHYTSDADGLCTRLIKPKVMEGTVAAQDEFYRSGWALNMKELKLLQTIGKGEFGDVMLGDYRGNKVAVKCIKNDATAQAFLAEASVMTQLRHSNLVQLLGVIVEEKGGLYIVTEYMAKGSLVDYLRSRGRSVLGGDCLLKFSLDVCEAMEYLEGNNFVHRDLAARNVLVSEDNVAKVSDFGLTKEASSTQDTGKLPVKWTAPEALREKKFSTKSDVWSFGILLWEIYSFGRVPYPRIPLKDVVPRVEKGYKMDAPDGCPPAVYEVMKNCWHLDAAMRPSFLQLREQLEHIKTHELHL

Biological target: T1, Bovine, dephosphorylated, Myelin Basic …

Protein	MBP Kinase Activity
B1	Negative
B2	Strong
B3	Negative
B4	Weak
B5	Strong
B6	Weak
B7	Negative
B8	Strong
B9	Negative
